Tested on: PACSIN1 phosphorylation (Ser343) in HEK293 cells
Test: Cell-based assay: phospho-PACSIN1 on co-transfection with PAK6 constructs in HEK293 cells
Details: co-transfection with myc-PACSIN1, 24 h
Experimental: HEK293 cells were grown at 37°C with 5% CO2 in Dulbecco’s modified Eagle’s medium (DMEM) supplemented with 10% fetal bovine serum and penicillin/streptomycin. Cells were transfected with pCMV6-myc-PACSIN1 (kindly provided by J. Peterson) and pEGFP-C2, pEGFP-PAK6-WT, pEGFP-PAK6-P52L, pEGFP-PAK6-N (N-terminus, residues 1–382) or pEGFP-PAK6-CAT (catalytic domain, residues 383–674) using polyethylenimine (PEI, Polysciences Inc.). Twenty four hours later, cells were trypsinized, quenched with complete medium, washed with PBS and lysed in buffer containing 20 mM Tris (pH 8.0), 200 mM NaCl, 1 mM EDTA, 1% Triton X-100, Complete Protease Inhibitor Cocktail (Roche), and phosphatase inhibitors (1 mM Na3VO4, 10 mM NaF, 10 mM β-glycerol phosphate) for 10 minutes at 4°C. Samples were resolved by SDS-PAGE and were assessed by immunoblotting using the following antibodies: goat anti-GFP (1∶1000; Rockland), mouse anti-myc (9E10, 1∶1000; Santa Cruz Biotechnology), rabbit anti-phospho-PACSIN1 (1∶2000; gift of J. Peterson), mouse anti-vinculin (1∶10,000; Sigma), anti-goat or anti-rabbit IgG AlexaFluor680 (1∶5000, Invitrogen), anti-mouse IgG IRDye800 (1∶5000, Li-Cor). Bands visualized using a Li-Cor Oddysey imager and were quantified using ImageJ. A ratio of phospho-PACSIN1 to total PACSIN1 was calculated by dividing the total phospho-PACSIN1 signal by the myc signal.

B1: full-length WT GFP-PAK6: full-length wild-type PAK6 fused to GFP, transfected in HEK293 cells (protein, UniProt Q9NQU5 1-681, looked up)
chain: MFRKKKKKRPEISAPQNFQHRVHTSFDPKEGKFVGLPPQWQNILDTLRRPKPVVDPSRITRVQLQPMKTVVRGSAMPVDGYISGLLNDIQKLSVISSNTLRGRSPTSRRRAQSLGLLGDEHWATDPDMYLQSPQSERTDPHGLYLSCNGGTPAGHKQMPWPEPQSPRVLPNGLAAKAQSLGPAEFQGASQRCLQLGACLQSSPPGASPPTGTNRHGMKAAKHGSEEARPQSCLVGSATGRPGGEGSPSPKTRESSLKRRLFRSMFLSTAATAPPSSSKPGPPPQSKPNSSFRPPQKDNPPSLVAKAQSLPSDQPVGTFSPLTTSDTSSPQKSLRTAPATGQLPGRSSPAGSPRTWHAQISTSNLYLPQDPTVAKGALAGEDTGVVTHEQFKAALRMVVDQGDPRLLLDSYVKIGEGSTGIVCLAREKHSGRQVAVKMMDLRKQQRRELLFNEVVIMRDYQHFNVVEMYKSYLVGEELWVLMEFLQGGALTDIVSQVRLNEEQIATVCEAVLQALAYLHAQGVIHRDIKSDSILLTLDGRVKLSDFGFCAQISKDVPKRKSLVGTPYWMAPEVISRSLYATEVDIWSLGIMVIEMVDGEPPYFSDSPVQAMKRLRDSPPPKLKNSHKVSPVLRDFLERMLVRDPQERATAQELLDHPFLLQTGLPECLVPLIQLYRKQTSTC
modifications: full-length GFP fusion
notes: full-length wild-type PAK6 fused to GFP, transfected in HEK293 cells
phospho-PACSIN1 immunoblot
  phosphorylation of PACSIN1 at Ser343 compared to GFP alone or GFP-PAK6 N-terminus: increased phosphorylation of PACSIN1 at Ser343

B2: P52L mutant: full-length GFP-PAK6 with melanoma-associated P52L mutation, transfected in HEK293 cells (protein, UniProt Q9NQU5 1-681, looked up, variant P52L)
chain: MFRKKKKKRPEISAPQNFQHRVHTSFDPKEGKFVGLPPQWQNILDTLRRPKLVVDPSRITRVQLQPMKTVVRGSAMPVDGYISGLLNDIQKLSVISSNTLRGRSPTSRRRAQSLGLLGDEHWATDPDMYLQSPQSERTDPHGLYLSCNGGTPAGHKQMPWPEPQSPRVLPNGLAAKAQSLGPAEFQGASQRCLQLGACLQSSPPGASPPTGTNRHGMKAAKHGSEEARPQSCLVGSATGRPGGEGSPSPKTRESSLKRRLFRSMFLSTAATAPPSSSKPGPPPQSKPNSSFRPPQKDNPPSLVAKAQSLPSDQPVGTFSPLTTSDTSSPQKSLRTAPATGQLPGRSSPAGSPRTWHAQISTSNLYLPQDPTVAKGALAGEDTGVVTHEQFKAALRMVVDQGDPRLLLDSYVKIGEGSTGIVCLAREKHSGRQVAVKMMDLRKQQRRELLFNEVVIMRDYQHFNVVEMYKSYLVGEELWVLMEFLQGGALTDIVSQVRLNEEQIATVCEAVLQALAYLHAQGVIHRDIKSDSILLTLDGRVKLSDFGFCAQISKDVPKRKSLVGTPYWMAPEVISRSLYATEVDIWSLGIMVIEMVDGEPPYFSDSPVQAMKRLRDSPPPKLKNSHKVSPVLRDFLERMLVRDPQERATAQELLDHPFLLQTGLPECLVPLIQLYRKQTSTC
modifications: full-length GFP fusion
notes: full-length GFP-PAK6 with melanoma-associated P52L mutation, transfected in HEK293 cells
phospho-PACSIN1/total PACSIN1 (myc), n = 4, Student's t-test
  phosphorylation of PACSIN1 compared to wild-type PAK6: significantly increased phosphorylation

— publication PMC3810134, “Substrate and Inhibitor Specificity of the Type II p21-Activated Kinase, PAK6” (PLoS ONE, 2013)
